Laboratory results: publication PMC8009048 (Science (New York, N.Y.), 2017)

Biological target: HOXB13 DNA binding domain fragment (residues 209-283) (human, UniProt Q92826 209-283)
Assay: crystal structure

Chain of HOXB13 DNA binding domain fragment (residues 209-283) (Q92826 209-283): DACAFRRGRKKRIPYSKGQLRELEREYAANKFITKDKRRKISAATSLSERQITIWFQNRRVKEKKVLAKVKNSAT

- binding result: binds
B1: MEIS1 DNA binding domain fragment (residues 279-333) (domain or fragment, human, UniProt O00470 279-333, looked up)
chain: FPKVATNIMRAWLFQHLTHPYPSEEQKKQLAQDTGLTILQVNNWFINARRRIVQP
